Measured values as given in PMC8829827, “Dynamics of Cations around DNA and Protein as Revealed by 23Na Diffusion NMR Spectroscopy”.

Molecular target: Antp homeodomain (C39S) (fruit fly, UniProt P02833 297-356, C335S)
Assay: 23Na diffusion NMR (Na+ release on complex formation); 1.10 mM protein, 1.52 mM DNA; 14.7 +/- 1.7 Na+ released per complex; sodium succinate buffer (20 mM Na+, 11.3 mM succinate), pH 5.8, 25 C
Details: protein: recombinant; blunt

Sequence of Antp homeodomain (C39S) (P02833 297-356 C335S): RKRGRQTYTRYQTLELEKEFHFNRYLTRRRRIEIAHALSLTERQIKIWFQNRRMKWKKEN

B1: 15-bp DNA duplex with Antp recognition sequence (dsDNA)
DNA 1: AGAAAGCCATTAGAG
DNA 2: CTCTAATGGCTTTCT
binding result: binds
